The values that follow come from US20210094998A1.

Bounds are passed on as bounds.

Some targets named below: CRHR2; CRHR1; rat Y2 receptor (rat).
What all share (experiment): cell-based or functional assay
The target in assay [1] is human Y1 receptor (human) (UniProt P25929).
For assay [2], the target named is rhesus monkey Y2 receptor (rhesus monkey) (UniProt Q9GK74).
Assay [3] concerns the target mouse Y2 receptor (mouse) (UniProt P97295).
For assay [4], the target named is rat glucagon receptor (rat) (UniProt P30082).
Chain of rat glucagon receptor (rat) (P30082 27-485): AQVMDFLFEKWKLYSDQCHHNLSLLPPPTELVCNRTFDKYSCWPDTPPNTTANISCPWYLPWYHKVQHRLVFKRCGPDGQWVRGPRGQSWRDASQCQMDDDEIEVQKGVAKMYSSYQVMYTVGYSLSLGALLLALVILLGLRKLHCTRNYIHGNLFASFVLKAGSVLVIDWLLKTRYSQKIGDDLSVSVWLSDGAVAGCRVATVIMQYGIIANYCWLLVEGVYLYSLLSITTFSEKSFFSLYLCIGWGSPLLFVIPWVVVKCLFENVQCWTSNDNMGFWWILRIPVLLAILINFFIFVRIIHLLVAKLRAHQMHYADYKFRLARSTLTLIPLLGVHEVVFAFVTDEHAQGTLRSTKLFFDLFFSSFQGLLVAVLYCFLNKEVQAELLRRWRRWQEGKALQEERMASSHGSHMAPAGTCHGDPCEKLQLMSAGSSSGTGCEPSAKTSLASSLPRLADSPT
Assay [5] addresses mouse GLP1 receptor (mouse) (UniProt O35659).
Assay [6] concerns the target cynomolgus monkey glucagon receptor (cynomolgus monkey).
Assay [7] addresses mouse glucagon receptor (mouse) (UniProt Q61606).
Assay [8] deals with cynomolgus monkey GLP1 receptor (cynomolgus monkey) (UniProt F8V479).
Assay [9] deals with human GLP1 receptor (human) (UniProt P43220).
Chain of human GLP1 receptor (human) (P43220 24-463): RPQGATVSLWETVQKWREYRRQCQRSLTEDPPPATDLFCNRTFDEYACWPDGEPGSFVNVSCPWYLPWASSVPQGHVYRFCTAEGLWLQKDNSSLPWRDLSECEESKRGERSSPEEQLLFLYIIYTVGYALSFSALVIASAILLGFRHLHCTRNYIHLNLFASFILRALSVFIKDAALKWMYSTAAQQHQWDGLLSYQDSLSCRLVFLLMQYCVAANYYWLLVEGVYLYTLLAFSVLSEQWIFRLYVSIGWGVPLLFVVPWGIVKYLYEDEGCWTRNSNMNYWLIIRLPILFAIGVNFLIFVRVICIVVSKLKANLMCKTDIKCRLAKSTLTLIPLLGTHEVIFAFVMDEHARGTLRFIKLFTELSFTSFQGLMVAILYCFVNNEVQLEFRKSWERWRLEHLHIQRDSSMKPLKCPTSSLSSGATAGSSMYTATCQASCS
In assay [10] the target is human glucagon receptor (human) (UniProt P47871).
Chain of human glucagon receptor (human) (P47871 26-477): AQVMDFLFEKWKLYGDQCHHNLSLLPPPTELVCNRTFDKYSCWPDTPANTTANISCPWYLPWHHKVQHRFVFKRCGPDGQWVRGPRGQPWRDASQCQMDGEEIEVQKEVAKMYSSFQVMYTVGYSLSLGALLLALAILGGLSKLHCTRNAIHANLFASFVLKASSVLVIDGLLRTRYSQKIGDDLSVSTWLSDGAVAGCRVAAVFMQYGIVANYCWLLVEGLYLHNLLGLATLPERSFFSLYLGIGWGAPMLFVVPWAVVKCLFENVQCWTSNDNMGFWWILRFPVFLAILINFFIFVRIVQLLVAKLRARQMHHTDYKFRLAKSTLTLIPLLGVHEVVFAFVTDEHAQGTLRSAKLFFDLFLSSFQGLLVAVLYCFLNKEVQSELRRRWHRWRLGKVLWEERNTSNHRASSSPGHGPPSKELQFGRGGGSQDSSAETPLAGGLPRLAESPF

Chain of mouse GLP1 receptor (mouse) (O35659 22-463): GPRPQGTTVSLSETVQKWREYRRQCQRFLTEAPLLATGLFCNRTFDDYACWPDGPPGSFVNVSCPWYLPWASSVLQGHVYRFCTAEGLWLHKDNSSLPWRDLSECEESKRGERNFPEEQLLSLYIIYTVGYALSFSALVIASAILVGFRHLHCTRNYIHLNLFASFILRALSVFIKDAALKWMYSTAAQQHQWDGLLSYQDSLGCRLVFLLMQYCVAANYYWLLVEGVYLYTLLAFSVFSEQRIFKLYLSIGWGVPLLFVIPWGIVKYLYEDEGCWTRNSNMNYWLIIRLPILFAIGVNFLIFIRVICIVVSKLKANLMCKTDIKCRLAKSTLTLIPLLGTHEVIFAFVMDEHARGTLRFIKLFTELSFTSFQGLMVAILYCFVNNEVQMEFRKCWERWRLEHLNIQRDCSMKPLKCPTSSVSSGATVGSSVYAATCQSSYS
Chain of rhesus monkey Y2 receptor (rhesus monkey) (Q9GK74 whole entry): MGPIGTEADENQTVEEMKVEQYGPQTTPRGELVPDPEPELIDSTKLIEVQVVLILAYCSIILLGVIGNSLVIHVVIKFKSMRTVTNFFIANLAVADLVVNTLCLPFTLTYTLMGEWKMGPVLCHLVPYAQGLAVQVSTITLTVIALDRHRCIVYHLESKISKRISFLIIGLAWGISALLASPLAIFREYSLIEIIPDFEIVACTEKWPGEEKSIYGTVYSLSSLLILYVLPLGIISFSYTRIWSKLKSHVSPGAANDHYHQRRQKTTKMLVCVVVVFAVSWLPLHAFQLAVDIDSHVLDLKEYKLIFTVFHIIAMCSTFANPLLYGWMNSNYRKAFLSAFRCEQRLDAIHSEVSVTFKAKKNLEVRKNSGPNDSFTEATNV
Chain of human Y1 receptor (human) (P25929 whole entry): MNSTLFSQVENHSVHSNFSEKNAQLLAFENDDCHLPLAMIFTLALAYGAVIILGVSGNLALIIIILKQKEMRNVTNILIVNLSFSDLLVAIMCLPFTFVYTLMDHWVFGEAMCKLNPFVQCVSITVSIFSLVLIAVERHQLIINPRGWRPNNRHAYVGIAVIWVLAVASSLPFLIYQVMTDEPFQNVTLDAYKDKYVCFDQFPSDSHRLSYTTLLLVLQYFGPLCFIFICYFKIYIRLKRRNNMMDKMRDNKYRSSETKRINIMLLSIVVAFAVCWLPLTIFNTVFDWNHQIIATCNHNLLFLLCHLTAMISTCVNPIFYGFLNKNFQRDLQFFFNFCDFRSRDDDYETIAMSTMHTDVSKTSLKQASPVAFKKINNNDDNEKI
Chain of mouse Y2 receptor (mouse) (P97295 whole entry): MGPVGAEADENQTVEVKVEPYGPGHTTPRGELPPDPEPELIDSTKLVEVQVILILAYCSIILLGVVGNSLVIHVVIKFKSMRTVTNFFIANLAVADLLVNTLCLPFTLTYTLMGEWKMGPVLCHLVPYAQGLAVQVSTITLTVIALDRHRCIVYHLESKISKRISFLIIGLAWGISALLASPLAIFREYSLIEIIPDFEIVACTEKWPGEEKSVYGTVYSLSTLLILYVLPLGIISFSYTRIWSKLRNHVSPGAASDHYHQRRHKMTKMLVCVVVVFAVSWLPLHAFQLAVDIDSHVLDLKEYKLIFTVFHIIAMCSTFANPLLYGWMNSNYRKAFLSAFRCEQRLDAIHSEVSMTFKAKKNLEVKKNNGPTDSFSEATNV
Chain of mouse glucagon receptor (mouse) (Q61606 27-485): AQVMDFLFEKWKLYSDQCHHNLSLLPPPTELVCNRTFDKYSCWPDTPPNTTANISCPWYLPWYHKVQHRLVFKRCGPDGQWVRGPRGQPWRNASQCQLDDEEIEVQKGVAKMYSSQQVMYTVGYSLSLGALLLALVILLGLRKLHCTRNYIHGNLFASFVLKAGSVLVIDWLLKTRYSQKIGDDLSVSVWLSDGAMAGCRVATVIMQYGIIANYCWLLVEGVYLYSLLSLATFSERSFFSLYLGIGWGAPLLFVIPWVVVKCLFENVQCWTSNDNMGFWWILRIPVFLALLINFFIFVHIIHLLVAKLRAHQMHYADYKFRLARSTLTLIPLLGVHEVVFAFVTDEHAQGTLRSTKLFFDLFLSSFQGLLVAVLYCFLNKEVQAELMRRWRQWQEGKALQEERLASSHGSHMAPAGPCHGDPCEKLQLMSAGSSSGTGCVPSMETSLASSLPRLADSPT

For “Sauvagine (from UniProt P01144 1-40) (peptide; unit assumed)”, the Max response, cAMP assay with CRHR2 was 107%; in the assay with CRHR1, 106%.

Turning to “Sauvagine (from UniProt P01144 1-40) (peptide)”, the RC50, cAMP assay came out at 0.0034 µM with CRHR2 and 0.000308 µM in the assay with CRHR1.

Regarding PYY3-36 (peptide), the EC50, cAMP assay (LANCE) on receptor-expressing cells with rat Y2 receptor (rat) stood at 0.5 nM; in [1] it was 66.4 nM; in assay [2] it was 0.06 nM; in [3] it was 0.03 nM.

Turning to Ser-8 GLP1 (peptide), the EC50, receptor cAMP assay was greater than 100 nM in assay [4]; 0.06 nM in assay [5]; greater than 100 nM in assay [6]; greater than 100 nM in [7]; 0.08 nM in assay [8]; 0.07 nM in assay [9]. The substance also gave an EC50, receptor cAMP assay in [10] greater than 100 nM.
